Experimental data taken from patent US12104181B2, “Compositions and methods for treating viral infections targeting TRIM7” (THE BOARD OF REGENTS OF THE UNIVERSITY OF TEXAS SYSTEM, priority 2021, dated 2024).

Tested on: coxsackievirus B3 (CVB3-GFP)
Type: cell-based
Settings: HeLa cells, replicate R1; for Percent Infected R1: GFP-positive cells within RFP-positive gate

Molecule | Percent Infected R1 [%] | Z score R1
RNF113: human RING type E3 ligase expressed from lentiviral vector (protein, UniProt O15541 2-343, looked up) E3 ubiquitin-protein ligase …: AEQLSPGKAVDQVCTFLFKKPGRKGAAGRRKRPACDPEPGESGSSSDEGCTVVRPEKKRVTHNPMIQKTRDSGKQKAAYGDLSSEEEEENEPESLGVVYKSTRSAKPVGPEDMGATAVYELDTEKERDAQAIFERSQKIQEELRGKEDDKIYRGINNYQKYMKPKDTSMGNASSGMVRKGPIRAPEHLRATVRWDYQPDICKDYKETGFCGFGDSCKFLHDRSDYKHGWQIERELDEGRYGVYEDENYEVGSDDEEIPFKCFICRQSFQNPVVTKCRHYFCESCALQHFRTTPRCYVCDQQTNGVFNPAKELIAKLEKHRATGEGGASDLPEDPDEDAIPIT | 92 | 0.043
RNF141: human RING type E3 ligase expressed from lentiviral vector (protein, UniProt Q8WVD5 2-230, looked up) RING finger protein 141: GQQISDQTQLVINKLPEKVAKHVTLVRESGSLTYEEFLGRVAELNDVTAKVASGQEKHLLFEVQPGSDSSAFWKVVVRVVCTKINKSSGIVEASRIMNLYQFIQLYKDITSQAAGVLAQSSTSEEPDENSSSVTSCQASLWMGRVKQLTDEEECCICMDGRADLILPCAHSFCQKCIDKWSDRHRNCPICRLQMTGANESWVVSDAPTEDDMANYILNMADEAGQPHRP | 87.2 | −0.02
TRIM6: human RING type E3 ligase expressed from lentiviral vector (protein, UniProt Q9C030 1-488, looked up) Tripartite motif-containing …: MTSPVLVDIREEVTCPICLELLTEPLSIDCGHSFCQACITPNGRESVIGQEGERSCPVCQTSYQPGNLRPNRHLANIVRRLREVVLGPGKQLKAVLCADHGEKLQLFCQEDGKVICWLCERSQEHRGHHTFLVEEVAQEYQEKFQESLKKLKNEEQEAEKLTAFIREKKTSWKNQMEPERCRIQTEFNQLRNILDRVEQRELKKLEQEEKKGLRIIEEAENDLVHQTQSLRELISDLERRCQGSTMELLQDVSDVTERSEFWTLRKPEALPTKLRSMFRAPDLKRMLRVCRELTDVQSYWVDVTLNPHTANLNLVLAKNRRQVRFVGAKVSGPSCLEKHYDCSVLGSQHFSSGKHYWEVDVAKKTAWILGVCSNSLGPTFSFNHFAQNHSAYSRYQPQSGYWVIGLQHNHEYRAYEDSSPSLLLSMTVPPRRVGVFLDYEAGTVSFYNVTNHGFPIYTFSKYYFPTTLCPYFNPCNCVIPMTLRRPSS | 67.4 | −0.27
TRIM1: human RING type E3 ligase expressed from lentiviral vector (protein, UniProt Q9UJV3 1-735, looked up) Probable E3 ubiquitin-protein …: MGESPASVVLNASGGLFSLKMETLESELTCPICLELFEDPLLLPCAHSLCFSCAHRILVSSCSSGESIEPITAFQCPTCRYVISLNHRGLDGLKRNVTLQNIIDRFQKASVSGPNSPSESRRERTYRPTTAMSSERIACQFCEQDPPRDAVKTCITCEVSYCDRCLRATHPNKKPFTSHRLVEPVPDTHLRGITCLDHENEKVNMYCVSDDQLICALCKLVGRHRDHQVASLNDRFEKLKQTLEMNLTNLVKRNSELENQMAKLIQICQQVEVNTAMHEAKLMEECDELVEIIQQRKQMIAVKIKETKVMKLRKLAQQVANCRQCLERSTVLINQAEHILKENDQARFLQSAKNIAERVAMATASSQVLIPDINFNDAFENFALDFSREKKLLEGLDYLTAPNPPSIREELCTASHDTITVHWISDDEFSISSYELQYTIFTGQANFISKSWCSWGLWPEIRKCKEAVSCSRLAGAPRGLYNSVDSWMIVPNIKQNHYTVHGLQSGTRYIFIVKAINQAGSRNSEPTRLKTNSQPFKLDPKMTHKKLKISNDGLQMEKDESSLKKSHTPERFSGTGCYGAAGNIFIDSGCHYWEVVMGSSTWYAIGIAYKSAPKNEWIGKNASSWVFSRCNSNFVVRHNNKEMLVDVPPHLKRLGVLLDYDNNMLSFYDPANSLHLHTFDVTFILPVCPTFTIWNKSLMILSGLPAPDFIDYPERQECNCRPQESPYVSGMKTCH | 82.1 | −0.083
TRIM8: human RING type E3 ligase expressed from lentiviral vector (protein, UniProt Q9BZR9 1-551, looked up) E3 ubiquitin-protein ligase …: MAENWKNCFEEELICPICLHVFVEPVQLPCKHNFCRGCIGEAWAKDSGLVRCPECNQAYNQKPGLEKNLKLTNIVEKFNALHVEKPPAALHCVFCRRGPPLPAQKVCLRCEAPCCQSHVQTHLQQPSTARGHLLVEADDVRAWSCPQHNAYRLYHCEAEQVAVCQYCCYYSGAHQGHSVCDVEIRRNEIRKMLMKQQDRLEEREQDIEDQLYKLESDKRLVEEKVNQLKEEVRLQYEKLHQLLDEDLRQTVEVLDKAQAKFCSENAAQALHLGERMQEAKKLLGSLQLLFDKTEDVSFMKNTKSVKILMDRTQTCTSSSLSPTKIGHLNSKLFLNEVAKKEKQLRKMLEGPFSTPVPFLQSVPLYPCGVSSSGAEKRKHSTAFPEASFLETSSGPVGGQYGAAGTASGEGQSGQPLGPCSSTQHLVALPGGAQPVHSSPVFPPSQYPNGSAAQQPMLPQYGGRKILVCSVDNCYCSSVANHGGHQPYPRSGHFPWTVPSQEYSHPLPPTPSVPQSLPSLAVRDWLDASQQPGHQDFYRVYGQPSTKHYVTS | 70.1 | −0.235
RNF214: human RING type E3 ligase expressed from lentiviral vector (protein, UniProt Q8ND24 2-703, looked up) RING finger protein 214: AASEVAGVVANAPSPPESSSLCASKSDEGLPDGLSTKDSAQKQKNSPLLSVSSQTITKENNRNVHLEHSEQNPGSSAGDTSAAHQVVLGENLIATALCLSGSGSQSDLKDVASTAGEEGDTSLRESLHPVTRSLKAGCHTKQLASRNCSEEKSPQTSILKEGNRDTSLDFRPVVSPANGVEGVRVDQDDDQDSSSLKLSQNIAVQTDFKTADSEVNTDQDIEKNLDKMMTERTLLKERYQEVLDKQRQVENQLQVQLKQLQQRREEEMKNHQEILKAIQDVTIKREETKKKIEKEKKEFLQKEQDLKAEIEKLCEKGRREVWEMELDRLKNQDGEINRNIMEETERAWKAEILSLESRKELLVLKLEEAEKEAELHLTYLKSTPPTLETVRSKQEWETRLNGVRIMKKNVRDQFNSHIQLVRNGAKLSSLPQIPTPTLPPPPSETDFMLQVFQPSPSLAPRMPFSIGQVTMPMVMPSADPRSLSFPILNPALSQPSQPSSPLPGSHGRNSPGLGSLVSPHGPHMPPAASIPPPPGLGGVKASAETPRPQPVDKLEKILEKLLTRFPQCNKAQMTNILQQIKTARTTMAGLTMEELIQLVAARLAEHERVAASTQPLGRIRALFPAPLAQISTPMFLPSAQVSYPGRSSHAPATCKLCLMCQKLVQPSELHPMACTHVLHKECIKFWAQTNTNDTCPFCPTLK | 93.9 | 0.067
TRIM4: human RING type E3 ligase expressed from lentiviral vector (protein, UniProt Q9C037 1-500, looked up) E3 ubiquitin-protein ligase …: MEAEDIQEELTCPICLDYFQDPVSIECGHNFCRGCLHRNWAPGGGPFPCPECRHPSAPAALRPNWALARLTEKTQRRRLGPVPPGLCGRHWEPLRLFCEDDQRPVCLVCRESQEHQTHAMAPIDEAFESYRTGNFDIHVDEWKRRLIRLLLYHFKQEEKLLKSQRNLVAKMKKVMHLQDVEVKNATQWKDKIKSQRMRISTEFSKLHNFLVEEEDLFLQRLNKEEEETKKKLNENTLKLNQTIASLKKLILEVGEKSQAPTLELLQNPKEVLTRSEIQDVNYSLEAVKVKTVCQIPLMKEMLKRFQVAVNLAEDTAHPKLVFSQEGRYVKNTASASSWPVFSSAWNYFAGWRNPQKTAFVERFQHLPCVLGKNVFTSGKHYWEVESRDSLEVAVGVCREDVMGITDRSKMSPDVGIWAIYWSAAGYWPLIGFPGTPTQQEPALHRVGVYLDRGTGNVSFYSAVDGVHLHTFSCSSVSRLRPFFWLSPLASLVIPPVTDRK | 67.8 | −0.265
TRIM9: human RING type E3 ligase expressed from lentiviral vector (protein, UniProt Q9C026 1-710, looked up) E3 ubiquitin-protein ligase …: MEEMEEELKCPVCGSFYREPIILPCSHNLCQACARNILVQTPESESPQSHRAAGSGVSDYDYLDLDKMSLYSEADSGYGSYGGFASAPTTPCQKSPNGVRVFPPAMPPPATHLSPALAPVPRNSCITCPQCHRSLILDDRGLRGFPKNRVLEGVIDRYQQSKAAALKCQLCEKAPKEATVMCEQCDVFYCDPCRLRCHPPRGPLAKHRLVPPAQGRVSRRLSPRKVSTCTDHELENHSMYCVQCKMPVCYQCLEEGKHSSHEVKALGAMWKLHKSQLSQALNGLSDRAKEAKEFLVQLRNMVQQIQENSVEFEACLVAQCDALIDALNRRKAQLLARVNKEHEHKLKVVRDQISHCTVKLRQTTGLMEYCLEVIKENDPSGFLQISDALIRRVHLTEDQWGKGTLTPRMTTDFDLSLDNSPLLQSIHQLDFVQVKASSPVPATPILQLEECCTHNNSATLSWKQPPLSTVPADGYILELDDGNGGQFREVYVGKETMCTVDGLHFNSTYNARVKAFNKTGVSPYSKTLVLQTSEVAWFAFDPGSAHSDIILSNDNLTVTCSSYDDRVVLGKTGFSKGIHYWELTVDRYDNHPDPAFGVARMDVMKDVMLGKDDKAWAMYVDNNRSWFMHNNSHTNRTEGGITKGATIGVLLDLNRKNLTFFINDEQQGPIAFDNVEGLFFPAVSLNRNVQVTLHTGLPVPDFYSSRASIA | 81.3 | −0.093
TRIM2: human RING type E3 ligase expressed from lentiviral vector (protein, UniProt Q9C040 1-744, looked up) Tripartite motif-containing …: MASEGTNIPSPVVRQIDKQFLICSICLERYKNPKVLPCLHTFCERCLQNYIPAHSLTLSCPVCRQTSILPEKGVAALQNNFFITNLMDVLQRTPGSNAEESSILETVTAVAAGKPLSCPNHDGNVMEFYCQSCETAMCRECTEGEHAEHPTVPLKDVVEQHKASLQVQLDAVNKRLPEIDSALQFISEIIHQLTNQKASIVDDIHSTFDELQKTLNVRKSVLLMELEVNYGLKHKVLQSQLDTLLQGQESIKSCSNFTAQALNHGTETEVLLVKKQMSEKLNELADQDFPLHPRENDQLDFIVETEGLKKSIHNLGTILTTNAVASETVATGEGLRQTIIGQPMSVTITTKDKDGELCKTGNAYLTAELSTPDGSVADGEILDNKNGTYEFLYTVQKEGDFTLSLRLYDQHIRGSPFKLKVIRSADVSPTTEGVKRRVKSPGSGHVKQKAVKRPASMYSTGKRKENPIEDDLIFRVGTKGRNKGEFTNLQGVAASTNGKILIADSNNQCVQIFSNDGQFKSRFGIRGRSPGQLQRPTGVAVHPSGDIIIADYDNKWVSIFSSDGKFKTKIGSGKLMGPKGVSVDRNGHIIVVDNKACCVFIFQPNGKIVTRFGSRGNGDRQFAGPHFAAVNSNNEIIITDFHNHSVKVFNQEGEFMLKFGSNGEGNGQFNAPTGVAVDSNGNIIVADWGNSRIQVFDGSGSFLSYINTSADPLYGPQGLALTSDGHVVVADSGNHCFKVYRYLQ | 62.1 | −0.337
